Experiments:
PIV1014 = target: T1, PIV1014 (PIV1); assay: BLI, no stress;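 further: binding of thermally stressed PIV1 F mutant supernatant to mAb on AHC biosensors for 5 min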
T1 construct: Q92C-G134C
Procedure: (§1) All measurements were conducted at 30° C. temperature in 96-well black plates (Corning, Corning, NY) with a final volume of 240 μL per well at a constant agitation rate of 1000 RPM.
(§2) Conformation integrity of PIV1 F protein mutants were evaluated by a thermal stress experiment. Crude cell culture supernatants were normalized based on the results of the titer quantitation and then incubated for 1 hour at room temperature and two higher temperatures. For the initial testing of PIV1 mutants, the two temperatures were 50° C. and 53° C. […] Anti-Human IgG Fc Capture (AHC) biosensors were first equilibrated in PB for before being dipped into more PB to establish the initial baseline. […] The mAb-bound biosensors were then dipped into the thermal stresses cell culture supernatants for 5 minutes.

PIV1023 = target: T2, PIV1023 (PIV1); assay: BLI, no stress;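 further: binding of thermally stressed PIV1 F mutant supernatant to mAb on AHC biosensors for 5 min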
T2 construct: A466L
Procedure: as §1, §2

PIV1024 = target: T3, PIV1024 (PIV1); assay: BLI, no stress;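 further: binding of thermally stressed PIV1 F mutant supernatant to mAb on AHC biosensors for 5 min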
T3 construct: A466V
Procedure: as §1, §2

PIV1026 = target: T4, PIV1026 (PIV1); assay: BLI, no stress;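 further: binding of thermally stressed PIV1 F mutant supernatant to mAb on AHC biosensors for 5 min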
T4 construct: S473V
Procedure: as §1, §2

PIV1027 = target: T5, PIV1027 (PIV1); assay: BLI, no stress
T5 construct: S473L
Procedure: as §1, §2

PIV1028 = target: T6, PIV1028 (PIV1); assay: BLI, no stress
T6 construct: A480L
Procedure: as §1, §2

PIV1030 = target: T7, PIV1030 (PIV1); assay: BLI, no stress
T7 construct: A466L, S473A
Procedure: as §1, §2

PIV1031 = target: T8, PIV1031 (PIV1); assay: BLI, no stress
T8 construct: A466L, S473L
Procedure: as §1, §2

PIV1033 = target: T9, PIV1033 (PIV1); assay: BLI, no stress
T9 construct: T198A
Procedure: as §1, §2

PIV1036 = target: T10, PIV1036 (PIV1); assay: BLI, no stress
T10 construct: G134A
Procedure: as §1, §2

PIV1039 = target: T11, PIV1039 (PIV1); assay: BLI, no stress
T11 construct: A128P
Procedure: as §1, §2

F protein of hPIV1 virus = F protein of hPIV1 virus (human parainfluenza virus 1); assay: cell-based or functional assay
hMPV047 = target: T12, hMPV047 (hMPV A, UniProt Q6WB98 19-102); assay: BLI, 50C stress
T12 construct: L141C-A159C
Procedure: (§3) The OCTET HTX (Sartorius, Gottingen, Germany) instrument was used to evaluate the expression and conformational integrity for each mutant. All measurements were conducted at 30° C. temperature in 96-well black plates (Corning, Corning, NY) with a final volume of 240 μL per well at a constant agitation rate of 1000 RPM.
(§4) Conformation integrity of hMPV A F protein mutants were evaluated by thermal stress experiments. Crude cell culture supernatants were normalized based on the results of the titer quantitation and then incubated for 1 hour at room temperature and two higher temperatures. […] Anti-Human IgG Fc Capture (AHC) biosensors were first equilibrated in PB before being dipped into more PB to establish the initial baseline. […] The mAb-bound biosensors were then dipped into the thermal stressed cell culture supernatants for 5 minutes. The kinetics analysis was done by OCTET data analysis software (version 12.0, Sartorius) based on curve fitting of the entire associate step.

hMPV048 = target: T13, hMPV048 (hMPV A, UniProt Q6WB98 19-102); assay: BLI, 50C stress
T13 construct: L141C-A161C
Procedure: as §3, §4

hMPV049 = target: T14, hMPV049 (hMPV A, UniProt Q6WB98 19-102); assay: BLI, 50C stress
T14 construct: E146C-T160C
Procedure: as §3, §4

hMPV050 = target: T15, hMPV050 (hMPV A, UniProt Q6WB98 19-102); assay: BLI, 50C stress
T15 construct: V148C-L158C
Procedure: as §3, §4

hMPV052 = target: T16, hMPV052 (hMPV A, UniProt Q6WB98 19-102); assay: BLI, 50C stress
T16 construct: L66P
Procedure: as §3, §4

hMPV053 = target: T17, hMPV053 (hMPV A, UniProt Q6WB98 19-102); assay: BLI, 50C stress
T17 construct: L110P
Procedure: as §3, §4

hMPV054 = target: T18, hMPV054 (hMPV A, UniProt Q6WB98 19-102); assay: BLI, 50C stress
T18 construct: S132P
Procedure: as §3, §4

hMPV055 = target: T19, hMPV055 (hMPV A, UniProt Q6WB98 19-102); assay: BLI, 50C stress
T19 construct: N145P
Procedure: as §3, §4

hMPV058 = target: T20, hMPV058 (hMPV A, UniProt Q6WB98 19-102); assay: BLI, 50C stress
T20 construct: L187P
Procedure: as §3, §4

hMPV059 = target: T21, hMPV059 (hMPV A, UniProt Q6WB98 19-102); assay: BLI, 50C stress
T21 construct: V449P
Procedure: as §3, §4

hMPV060 = target: T22, hMPV060 (hMPV A, UniProt Q6WB98 19-102); assay: BLI, 50C stress
T22 construct: A459P
Procedure: as §3, §4

hMPV061 = target: T23, hMPV061 (hMPV A, UniProt Q6WB98 19-102); assay: BLI, 50C stress
T23 construct: G106A
Procedure: as §3, §4

hMPV062 = target: T24, hMPV062 (hMPV A, UniProt Q6WB98 19-102); assay: BLI, 50C stress
T24 construct: G121A
Procedure: as §3, §4

hMPV063 = target: T25, hMPV063 (hMPV A, UniProt Q6WB98 19-102); assay: BLI, 50C stress
T25 construct: G239A
Procedure: as §3, §4

hMPV066 = target: T26, hMPV066 (hMPV A, UniProt Q6WB98 19-102); assay: BLI, 50C stress
T26 construct: T49I
Procedure: as §3, §4

hMPV067 = target: T27, hMPV067 (hMPV A, UniProt Q6WB98 19-102); assay: BLI, 50C stress
T27 construct: S149T
Procedure: as §3, §4

hMPV068 = target: T28, hMPV068 (hMPV A, UniProt Q6WB98 19-102); assay: BLI, 50C stress
T28 construct: A159V
Procedure: as §3, §4

hMPV069 = target: T29, hMPV069 (hMPV A, UniProt Q6WB98 19-102); assay: BLI, 50C stress
T29 construct: S291I
Procedure: as §3, §4

hMPV071 = target: T30, hMPV071 (hMPV A, UniProt Q6WB98 19-102); assay: BLI, 50C stress
T30 construct: T365I
Procedure: as §3, §4

hMPV075 = target: T31, hMPV075 (hMPV A, UniProt Q6WB98 19-102); assay: BLI, 50C stress
T31 construct: L473F
Procedure: as §3, §4

hMPV077 = target: T32, hMPV077 (hMPV A, UniProt Q6WB98 19-102); assay: BLI, 50C stress
T32 construct: Q476C, S477C
Procedure: as §3, §4

hMPV A F WT Control = hMPV A F WT Control (hMPV A, UniProt Q6WB98 19-102); assay: BLI, 50C stress
Procedure: as §3, §4

hMPV043 = target: T33, hMPV043 (hMPV A, UniProt Q6WB98 19-102); assay: BLI, 50C stress
T33 construct: G366C-D454C
Procedure: as §3, §4

hMPV044 = target: T34, hMPV044 (hMPV A, UniProt Q6WB98 19-102); assay: BLI, 50C stress
T34 construct: T411C-Q434C
Procedure: as §3, §4

hMPV045 = target: T35, hMPV045 (hMPV A, UniProt Q6WB98 19-102); assay: BLI, 50C stress
T35 construct: I137C-A159C
Procedure: as §3, §4

hMPV046 = target: T36, hMPV046 (hMPV A, UniProt Q6WB98 19-102); assay: BLI, 50C stress
T36 construct: A140C-S149C
Procedure: as §3, §4

[1] = target: F protein of hMPV A virus (human metapneumovirus A); assay: cell-based or functional assay
[2] = target: F protein of hMPV B virus (human metapneumovirus B); assay: cell-based or functional assay

B1: PIV1-8 mAb (antibody, V domains shown)
VH: QVQLVQSGAEVKKPGSSVKVSCEASGGTFSNYVISWVRQAPGQGLEWMGGIIPVFATAKYAQKFQGRVTIIADQSTNTAYLELSSLRSDDTAVYFCASVDSGGTWWDAFAIWGQGTMVTVSS
VL: QAVVTQPRSVSGSPGQAVTISCTGTSSDVGGYNYVSWYQHHPGKAPKLIIYDVTKRPSGVPDRFSGSKSGNTASLTISGLQTEYEADYYCCSYAGSYTLVFGGGTKLTVLG
notes: human IgG1; also called hPIV1-8 mAb; hPIV1-8
PIV1014
  Response Shift: 0.857 nm
PIV1023
  Response Shift: 0.831 nm
PIV1024
  Response Shift: 0.745 nm
PIV1026
  Response Shift: 0.606 nm
PIV1027
  Response Shift: 0.748 nm
PIV1028
  Response Shift: 0.579 nm
PIV1030
  Response Shift: 0.753 nm
PIV1031
  Response Shift: 0.766 nm
PIV1033
  Response Shift: -0.056 nm
PIV1036
  Response Shift: 0.753 nm
PIV1039
  Response Shift: -0.068 nm
F protein of hPIV1 virus
  IC50, virus neutralization assay: 0.005 µg/mL

B2: hMPV-2 mAb (antibody, V domains shown)
VH: QVQLQQSGAEVKKPGASVKVSCKASGYTFTSYGISWVRQAPGQGLEWMGWISGYNGNTNYAQTFQGTFTMTTDTSTSTAYMELRRLRSGDTAVYYCARDRYYASGSYNGMDVWGQGTTVTVSS
VL: QSALTQPPSASGAPGQRVTVSCSGSSSNVGSSSVYWYQQLPGTAPKLLIYRNNQRPSGVPDRFSGSKSGTSASLAISGLRSEDEADYYCAAWDDSLSGWVFGGGTKLTVLG
notes: human IgG1
hMPV047
  Response Shift: -0.039 nm
hMPV048
  Response Shift: 0.439 nm
hMPV049
  Response Shift: 0.549 nm
hMPV050
  Response Shift: 0.142 nm
hMPV052
  Response Shift: 0.634 nm
hMPV053
  Response Shift: 0.566 nm
hMPV054
  Response Shift: 0.467 nm
hMPV055
  Response Shift: 0.194 nm
hMPV058
  Response Shift: 0.494 nm
hMPV059
  Response Shift: 0.455 nm
hMPV060
  Response Shift: 0.707 nm
hMPV061
  Response Shift: 0.561 nm
hMPV062
  Response Shift: 0.46 nm
hMPV063
  Response Shift: 0.685 nm
hMPV066
  Response Shift: 0.738 nm
hMPV067
  Response Shift: 0.654 nm
hMPV068
  Response Shift: 0.441 nm
hMPV069
  Response Shift: 0.465 nm
hMPV071
  Response Shift: 0.694 nm
hMPV075
  Response Shift: 0.653 nm
hMPV077
  Response Shift: 0.635 nm
hMPV A F WT Control
  Response Shift: 0.284 nm
hMPV043
  Response Shift: 0.567 nm
hMPV044
  Response Shift: 0.737 nm
hMPV045
  Response Shift: 0.124 nm
hMPV046
  Response Shift: 0.472 nm
[1]
  IC50, virus neutralization assay: 20 µg/mL
[2]
  IC50, virus neutralization assay: 23.2 µg/mL

Source: US20240252614A1 (Pfizer, published 2024)
